Experimental data as given in the RNAGym collection of RNA variant scans (doi:10.1073/pnas.2313332121).

B1: TPR t1 (parent)
chain: GACCAAUCUGCCCUCAGAGCUCGAGAACAUCUUCGGAUGCAGAGGAGGCAGGCUUCGGUGGCGCGAUAGCGCCAACGUCCUCAACCUCCAAUGCAUCCCACCACAUGAUGAUGCCUGAAGAGCCUUGGUUUUUUG

Variants of: B1
Assay: polymerase ribozyme fitness, log enrichment relative to wild type (log ratio); higher = more active; in vitro selection for triplet polymerase activity
Outline: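 Mutant libraries for each subunit of a heterodimeric triplet polymerase ribozyme were made by PCR and then transcribed. Each library underwent one round of in vitro selection in triplicate: annealing with a biotinylated primer, the partner subunit and triplets, frozen incubation at −7 °C, gel excision of extended constructs, streptavidin-bead capture and RT-PCR. Input and output libraries were Illumina-sequenced, and only genotypes with ≥10 input reads and ≥1 read per output were kept. Fitness is the logarithm, base 2, of genotype enrichment over wild-type enrichment, computed from inverse-variance-weighted replicate averages.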

First: G52A C70U
Second: C53U U96C
The “polymerase ribozyme fitness (log ratio)” value of the first is lower: -0.605 for the first, -0.173 for the second.

Compared with G52U U81A, C53U C70G is lower in “polymerase ribozyme fitness (log ratio)” value: -2.79 for the first, -4.36 for the second.

Going from C53U C70A to G52C G113A C124U, the “polymerase ribozyme fitness (log ratio)” value falls from -1.49 to -1.69.

First: C53A G60U
Second: C53A G60C
The “polymerase ribozyme fitness (log ratio)” value of the first is higher: -0.129 for the first, -2.24 for the second.

First: C53G C64A U112G C124A
Second: G52C G69U C99U
The “polymerase ribozyme fitness (log ratio)” value of the first is lower: -6.11 for the first, -1.34 for the second.

First: C53G U87G C97U G117U
Second: C53G G107A
The “polymerase ribozyme fitness (log ratio)” value of the first is higher: -4.2 for the first, -5.6 for the second.

First: C53U C94A U129C
Second: G52A G113A
The “polymerase ribozyme fitness (log ratio)” value of the first is lower: -1.99 for the first, -1.37 for the second.

Compared with G52C C115A A118U U131A, G52C G61A C62U C85U U96G G117A is lower in “polymerase ribozyme fitness (log ratio)” value: -2.68 for the first, -4.79 for the second.

First: C53A G113C
Second: G52C C85U G117C
The “polymerase ribozyme fitness (log ratio)” value of the first is higher: -2.28 for the first, -5.83 for the second.

Going from C53A C80U U106A G135U to G51U C72A U106A, the “polymerase ribozyme fitness (log ratio)” value rises from -3.96 to -3.24.

Going from G51C G63A U78C A111C to G51A A84C, the “polymerase ribozyme fitness (log ratio)” value rises from -6.17 to -2.3.

First: G52U C72G C79A G110A C123A
Second: C53G C89U
The “polymerase ribozyme fitness (log ratio)” value of the first is lower: -3.69 for the first, -0.681 for the second.

First: G51C C62U U112C
Second: C53U G93A
The “polymerase ribozyme fitness (log ratio)” value of the first is lower: -2.27 for the first, -0.887 for the second.

Going from C53U U67G C124G to G51U G61A C64U U125G, the “polymerase ribozyme fitness (log ratio)” value rises from -7.17 to -6.13.

Compared with G52U C72U C104A G127C, G52A A95C G113C is higher in “polymerase ribozyme fitness (log ratio)” value: -3.82 for the first, -3.3 for the second.

Going from U54A A119G to C53U G69U C73U, the “polymerase ribozyme fitness (log ratio)” value falls from 0.648 to 0.0642.

Compared with U54A A68G G71U C80G C102G G113U U125A, C53U A90U is higher in “polymerase ribozyme fitness (log ratio)” value: -6.12 for the first, -0.929 for the second.

First: G51C G58A A100C C124U
Second: C53A G127U U129A
The “polymerase ribozyme fitness (log ratio)” value of the first is lower: -4.88 for the first, -0.623 for the second.

Going from C53U G71A G93A to G51C U129C, the “polymerase ribozyme fitness (log ratio)” value falls from -1.43 to -3.96.

Going from C53A G120U G122C U125A to C53U C99G A119G, the “polymerase ribozyme fitness (log ratio)” value falls from -0.563 to -7.41.

First: G52A G69U G71U C102A
Second: C53G C64U G110U
The “polymerase ribozyme fitness (log ratio)” value of the first is lower: -4.53 for the first, -3.95 for the second.

Going from G52A C70U C86U C94A A100C C101U C114G to C53A A84U U125A, the “polymerase ribozyme fitness (log ratio)” value rises from -5.67 to -1.27.

Compared with G51U U87A G107U C115A A121U, C53G C82A C94U U130G is higher in “polymerase ribozyme fitness (log ratio)” value: -7.71 for the first, -0.77 for the second.

First: G52C C70A G110C
Second: G52C C62U C72A C82U A119U
The “polymerase ribozyme fitness (log ratio)” value of the first is lower: -6.64 for the first, -1.34 for the second.

First: C53G C72U
Second: C53U C56U
The “polymerase ribozyme fitness (log ratio)” value of the first is lower: -1.04 for the first, -0.207 for the second.

First: G52C C72A U78C
Second: C53G U78C C80U A91G U92C C124A
The “polymerase ribozyme fitness (log ratio)” value of the first is higher: 0.275 for the first, -5.02 for the second.

Compared with G51A C79G C80G A84C C124G G128C, C53A G63A U78C is higher in “polymerase ribozyme fitness (log ratio)” value: -7.76 for the first, -2.46 for the second.

First: U54C C56A C64A C85G G117A
Second: G52U C94U U106A A119G
The “polymerase ribozyme fitness (log ratio)” value of the first is lower: -7.73 for the first, -0.397 for the second.

Going from C53U G60C U87A to C53G G58C C62A C85U G113A, the “polymerase ribozyme fitness (log ratio)” value falls from -1.09 to -2.93.

Compared with G51A C53G G117C G127C, U54C A84G C88A C98U is higher in “polymerase ribozyme fitness (log ratio)” value: -7.73 for the first, -1.69 for the second.

First: C53G G117A U132A
Second: G51A C82U C124U
The “polymerase ribozyme fitness (log ratio)” value of the first is lower: -1.03 for the first, 0.555 for the second.

Going from G51U G127A to G51C U87A G120A, the “polymerase ribozyme fitness (log ratio)” value rises from -4.52 to -3.27.

C53U C64U and G52A G57C are within 0.2 log units of each other in “polymerase ribozyme fitness (log ratio)” value: -0.276 for the first, -0.388 for the second.

First: G51C G61U C114U
Second: G51C C85G
The “polymerase ribozyme fitness (log ratio)” value of the first is lower: -6.08 for the first, -4.34 for the second.

First: C53U U59A A84U U126C
Second: G52U G77U A90U A121U U130A
The “polymerase ribozyme fitness (log ratio)” value of the first is lower: -2.21 for the first, -0.805 for the second.

First: C53U G61U U78C
Second: G52U G69U C79A U87C U129G
The “polymerase ribozyme fitness (log ratio)” value of the first is higher: 0.151 for the first, -1.06 for the second.

Compared with G52C U116A G120A, C53G A90G is higher in “polymerase ribozyme fitness (log ratio)” value: -2.46 for the first, 0.537 for the second.

First: C53U G69A A84C
Second: G51A U131A
The “polymerase ribozyme fitness (log ratio)” value of the first is lower: -3.13 for the first, -2.2 for the second.

First: C53A G93C
Second: G52A C56G U96G
The “polymerase ribozyme fitness (log ratio)” value of the first is higher: -0.396 for the first, -1.35 for the second.

G51A C56U A84U C99U A121U and G51U C89A are within 0.2 log units of each other in “polymerase ribozyme fitness (log ratio)” value: -5.26 for the first, -5.25 for the second.

Compared with C53U C72U C79A C85U C88U, U54A G57C A90G C114U U132A is higher in “polymerase ribozyme fitness (log ratio)” value: -2.53 for the first, -2.18 for the second.

Going from C53A G60A C94A G120A to G51U C80U C88A A119G, the “polymerase ribozyme fitness (log ratio)” value falls from 0.047 to -1.11.
